# According to patent US8415106B2, “Cell-based screen for agents useful for reducing neuronal demyelination or promoting neuronal remyelination” (Myelin Repair Foundation, Inc., priority 2005, dated 2013):
# Columns and labels:
# [1] = system: oligodendrocytes and myelin in the corpus callosum; test: Cuprizone-induced demyelination/remyelination in GFAP/tTA; TRE/IFN-γ double transgenic mice; format: in vivo
# Method: The effects of IFN-γ on demyelination were evaluated in a cuprizone animal model using transgenic mice that allow for temporally regulated delivery of IFN-γ using the tetracycline controllable system (Lin, et al. (2004) J. Neurosci. 24: 10074-10083). The transgenic mice were generated by mating line 110 GFAP/tTA mice on the C57BL/6 background with line 184 TRE/IFN-γ on the C57BL/6 background to produce GFAP/tTA; TRE/IFN-γ double transgenic mice (Lin, et al. (2004) J. Neurosci. 24: 10074-10083). Transcriptional activation of the TRE/IFN-γ transgene by tTA was repressed in the control (DOX+) mice by adding 0.05 mg/ml doxycycline to the drinking water which was provided ad libitum from the day of conception. The DOX+ double transgenic mice were GFAP/tTA; TRE/IFN-γdouble transgenic animals fed cuprizone chow and never released from the doxycycline solution. DOX− double transgenic mice were GFAP/tTA; TRE/IFN-γdouble transgenic animals fed cuprizone chow and released from doxycycline to induce expression of IFN-γ.
# Demyelination was induced in 6-week-old DOX+ and DOX− male mice by feeding the mice a diet of milled mouse chow containing 0.2% cuprizone (Sigma-Aldrich, St. Louis, Mo.) for up to 6 weeks. Subsequently, both groups of mice were returned to a normal diet for up to 3 weeks to allow remyelination to occur. All animal procedures were conducted in complete compliance with the NIH Guide for the Care and Use of Laboratory Animals and were approved by the Institutional Animal Care and Use Committee of The University of Chicago.
# The effect of INF-γ on the population of oligodendrocytes was evaluated by immunohistochemical analysis of oligodendrocytes using an anti-CC1 antibody (APC7, 1:50; EMD Biosciences, Inc., La Jolla, Calif.) Immunohistochemistry was performed on brain sections obtained from mice that were first anesthetized mice and perfused through the left cardiac ventricle with 4% paraformaldehyde in 0.1M PBS. The brains were removed, postfixed with paraformaldehyde, cryopreserved in 30% sucrose, embedded in OCT and frozen on dry ice. Frozen sections were cut in a cryostat at a thickness of 10 μm. […] Fluorescent stained sections were mounted with Vectashield mounting medium with DAPI (Vector Laboratories) and visualized with a Zeiss Axioplan fluorescence microscope. […] Immunopositive cells were quantified by counting positive cells within the median of the corpus callosum, confined to an area of 0.04 mm^2. Only those cells with nuclei observable by DAPI staining were counted. Each MBP immunostaining slide was scored on a scale of zero to four. […]
# [2] = system: ER stress markers (BIP, CHOP, caspase-12); test: ER stress markers in the CNS of 14-day-old mice ectopically expressing IFN-γ (released from doxycycline at E14); format: in vivo; conditions: PND 14, DOX− from E14
# Text: To study the effect of INF-γ on the myelination of oligodendrocytes during mouse development, transgenic mice that allow for temporally regulated delivery of IFN-γ to the CNS using the tetracycline (tet) controllable system (Lin, et al. (2004) J. Neurosci. 24: 10074-10083) were generated. To drive tTA expression in astrocytes, the transcriptional regulatory region of the glial fibrillary acidic protein (GFAP) gene was chosen (Brenner, et al. (1994) J. Neurosci. 14: 1030-1037). GFAP/tTA mice were mated with TRE/IFN-γ mice to produce animals hemizygous for both transgenes. When these mice are maintained on doxycycline (DOX+), expression of the IFN-γ transgene is repressed (FIG. 10A); when the double transgenic mice are released from doxycycline (DOX−) INF-γ is expressed. For the purpose of these experiments, mice received doxycycline up to day 14 of development (E14), at which time the experimental animals (DOX−) stopped receiving doxycycline, while the control animals (DOX+) were continuously fed the dug. The mRNA for IFN-γ could be detected in the DOX− mice as early as 10 days after birth (data not shown).
# Real time PCR analysis was performed to determine the levels of expression of INF-γ, MHC-1, BIP, CHOP, and caspase 12. The primers for the PCR reactions for BIP, CHP and caspase 12 are given in example 1. The sense and antisense primers for INF-γ were […] (SEQ ID NO: 39) and […] (SEQ ID NO: 40), respectively; and the sense and antisense primers for MHC-1 were MHC-I sense primer: ATTCCCCAAAGGCCCATGT (SEQ ID NO: 1); and MHC-I antisense primer: […] (SEQ ID NO: 2).
# Western blot analysis was performed on the CNS of 14 day old mice to determine the expression of caspase-12 as described in Example 6.
molecule,measurement,setting,value
"IFN-γ: pleotropic cytokine secreted by activated T lymphocytes and natural killer cells; recombinant rat IFN-γ added to cultures or transgenically expressed in mouse CNS (protein, UniProt P01581 23-156, looked up) Interferon gamma: QGTLIESLESLKNYFNSSSMDAMEGKSLLLDIWRNWQKDGNTKILESQIISFYLRLFEVLKDNQAISNNISVIESHLITNFFSNSKAKKDAFMSIAKFEVNNPQIQHKAVNELIRVIHQLSPESSLRKRKRSRC",remyelinated axons,"[1]; DOX− mice (IFN-γ expressed), corpus callosum, week 8, control DOX+ 48.4%±4%",26.9%±7%
same,CC1 positive oligodendrocytes within the corpus callosum,"[1]; DOX− mice, 8 weeks, control DOX+ 228.7±20.2",78±12.7 /0.04 mm2
same,NG2 positive OPCs in the corpus callosum,"[1]; DOX− mice, week 4 of cuprizone treatment, DOX+ 19±2.12",46±4.24 /0.04 mm^2
same,NG2 positive OPCs in the corpus callosum,"[1]; DOX− mice, week 6, DOX+ 80±2.8",31.5±0.71 /0.04 mm^2
same,BIP expression,[2],approximately 1.6 times the control levels
same,CHOP expression,[2],~2 times the control levels
same,caspase-12 expression,[2],strongly enhanced
